The values that follow come from patent US20230257435A1, “Wound Healing Composition and Uses Thereof” (AGENCY FOR SCIENCE, TECHNOLOGY AND RESEARCH, priority 2020, published 2023).

One assay concerns BJ and HaCaT cells. The assay is described as follows: Transwell migration assay. In kind it is cell-based, human. To be noted: sAgrin 10 μg/ml as chemoattractant. As to the method:
FIG. 5 are assays showing effects of Agrin knockdown on 2D migration of keratinocytes and dermal fibroblasts. (a) RT-PCR analysis for Agrin gene expression in BJ and HaCaT cells treated with either control or Agrin siRNA. Data presented as mean+/−s.d. These knockdown cells were subsequently used for transwell migration assays. Migration was analyzed for a batch of Agrin depleted cells in response to sAgrin (10 μg/ml) in the bottom chambers as a chemoattractant (third panels). Migrating were quantified using ImageJ and represented as mean+/−s.d. (n=3, Students ‘t’ test, p=0.0004, 0.0003, and 0.0005, respectively). Scale bar: 20 μm. (b) Control, Agrin depleted, and Agrin knockdown BJ or primary mouse dermal fibroblasts (DF) cells pre-treated with 10 μg/ml sAgrin for 18 h were subjected to scratch wound assays. Representative bright-field images showing relative migration are presented at the indicated time-points. The mean non-migrated area+/−s.d. was quantified using ImageJ (n=3, Students ‘t’ test, *p<0.05, **p<0.004, ***p<0.0005, ****p=0.000002, ****p<0.000001, respectively). Scale bar: 20 μm. A Western blot verifying the knockdown of Agrin in DF is also shown with GAPDH as loading control. […] Results are quantified as in panel (b) (n=3, Students ‘t’ test, ****p<0.000001, **p<0.005, *p<0.05, respectively, all other p values are represented in the panels). […]

For another assay, the system named is pMLC. Put plainly: Force transmission via ligand conjugated magnetic beads. In kind it is cell-based, human.
The subject of a further assay is human skin explants. The assay is described as follows: Human skin explant (EPIDERM-FT) punch wound healing. It is filed as cell-based. To be noted: explants treated with Agrin siRNA #1; 20 μg sAgrin in ointment on days 2, 4, 6. From the text: Human epidermal keratinocyte cell line HaCaT was maintained in Dulbecco's modified Eagle's Medium (DMEM) (Gibco) containing 10% fetal bovine serum (FBS) with Penicillin and Streptomycin (Gibco Cat #15140148) antibiotics. The human foreskin normal fibroblasts (BJ) obtained from ATCC (ATCC® CRL-2522™) were passaged in DMEM (Gibco) with antibiotics. Normal primary adult epidermal keratinocytes (HEK) purchased from CELL Applications, Inc., (Cat #C-12003) were maintained in manufacturer provided keratinocyte growth medium as recommended. Primary keratinocytes from C57BL mouse strain were purchased from CellBiologics (Cat #C57-6066K) and maintained as per manufacturer recommended Epithelial cell growth medium (Cat #M6621, CellBiologics). The mouse primary dermal fibroblasts were isolated from C57BL mouse strain (Cat #m-GFP-6067), and cultured in complete fibroblast medium (CellBiologics, Cat #M2267). […]
Human skin equivalents and mice skin tissues were harvested, embedded, and subjected to routine histology using Hematoxylin and Eosin. […] Quantification of collagen as a marker for ECM deposition was done by picrosirius red staining of paraffin embedded mouse skin tissues, as per previously published protocol.

B1: sAgrin: C-terminus recombinant Agrin fragment containing 8 amino acid 'Z8' insert and LG3 domain (SEQ ID NO: 7), His-tagged, expressed in E. coli (protein)
chain: DTLAFDGRTFVEYLNAVTESELANEIPVEKALQSNHFELSLRTEATQGLVLWSGKATERADYVALAIVDGHLQLSYNLGSQPVVLRSTVPVNTNRWLRVVAHREQREGSLQVGNEAPVTGSSPLGATQLDTDGALWLGGLPELPVGPALPKAYGTGFVGCLRDVVVGRHPLHLLEDAVTKPELRPCPTP
modifications: His tag
Turning to B1, the “trans-well migration (rescue of Agrin knockdown)” value with BJ and HaCaT cells is on record as “in part, rescued”. Besides, the “pMLC recruitment in control cells upon force (bead pull-down Western)” value with pMLC (siControl cells) is “greater pMLC recruitment in control cells compared to FN, but similar to that induced by Syndecan-4”. For the same molecule, in the assay on pMLC (up to 60 min), the “pMLC with temporal increase of force application” value was “enhanced pMLC mechanoperception”. For the same molecule, the “wound healing and migration of keratinocytes (rescue)” value with human skin explants is “significantly rescued the wound healing and the migration of keratinocytes”.
